Test results taken from patent US20020182656.

Target: T1, Purified, recombinant sGNK
T1 chain: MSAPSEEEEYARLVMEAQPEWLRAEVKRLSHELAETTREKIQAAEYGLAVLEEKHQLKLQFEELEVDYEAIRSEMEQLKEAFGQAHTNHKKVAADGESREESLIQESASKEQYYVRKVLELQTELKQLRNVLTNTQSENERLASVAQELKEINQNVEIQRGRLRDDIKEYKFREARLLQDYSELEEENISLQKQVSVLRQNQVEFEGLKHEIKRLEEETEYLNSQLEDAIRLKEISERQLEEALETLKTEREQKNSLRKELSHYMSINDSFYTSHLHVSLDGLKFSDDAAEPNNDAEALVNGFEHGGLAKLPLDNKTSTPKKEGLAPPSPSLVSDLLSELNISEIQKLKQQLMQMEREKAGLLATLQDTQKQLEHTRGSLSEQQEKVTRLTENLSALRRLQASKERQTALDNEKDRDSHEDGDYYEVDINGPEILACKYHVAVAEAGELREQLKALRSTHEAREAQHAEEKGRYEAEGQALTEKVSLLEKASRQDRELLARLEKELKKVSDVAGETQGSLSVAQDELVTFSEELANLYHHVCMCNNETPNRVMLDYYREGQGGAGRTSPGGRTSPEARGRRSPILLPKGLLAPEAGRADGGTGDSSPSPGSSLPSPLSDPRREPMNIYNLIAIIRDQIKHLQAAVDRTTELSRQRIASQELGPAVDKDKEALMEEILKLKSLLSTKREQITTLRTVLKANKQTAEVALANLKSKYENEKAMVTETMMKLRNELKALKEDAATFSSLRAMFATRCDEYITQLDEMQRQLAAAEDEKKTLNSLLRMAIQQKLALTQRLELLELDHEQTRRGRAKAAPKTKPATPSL

B1: Human recombinant GNK (hu-rGNK) (protein)
chain: MSVLGEYERHCDSINSDFGSESGGCGDSSPGPSASQGPRAGGGAAEQEELHYIPIRVLGRGAFGEATLYRRTEDDSLVVWKEVDLTRLSEKERRDALNEIVILALLQHDNIIAYYNHFMDNTTLLIELEYCNGGNLYDKILRQKDKLFEEEMVVWYLFQIVSAVSCIHKAGILHRDIKTLNIFLTKANLIKLGDYGLAKKLNSEYSMAETLVGTPYYMSPELCQGVKYNFKSDIWAVGCVIFELLTLKRTFDATNPLNLCVKIVQGIRAMEVDSSQYSLELIQMVHSCLDQDPEQRPTADELLDRPLLRKRRREMEEKVTLLNAPTKRPRSSTVTEAPIAVVTSRTSEVYVWGGGKSTPQKLDVIKSGCSARQVCAGNTHFAVVTVEKELYTWVNMQGGTKLHGQLGHGDKASYRQPKHVEKLQGKAIHQVSCGDDFTVCVTDEGQLYAFGSDYYGCMGVDKVAGPEVLEPMQLNFFLSNPVEQVSCGDNHVVVLTRNKEVYSWGCGEYGRLGLDSEEDYYTPQKVDVPKALIIVAVQCGCDGTFLLTQSGKVLACGLNEFNKLGLNQCMSGIINHEAYHEVPYTTSFTLAKQLSFYKIRTIAPGKTHTAAIDERGRLLTFGCNKCGQLGVGNYKKRLGINLLGGPLGGKQVIRVSCGDEFTIAATDDNHIFAWGNGGNGRLAMTPTERPHGSDICTSWPRPIFGSLHHVPDLSCRGWHTILIVEKVLNSKTIRSNSSGLSIGTVFQSSSPGGGGGGGGGEEEDSQQESETPDPSGGFRGTMEADRGMEGLISPTEAMGNSNGASSSCPGWLRKELENAEFIPMPDSPSPLSAAFSESEKDTLPYEELQGLKVASEAPLEHKPQVEASSPRLNPAVTCAGKGTPLTPPACACSSLQVEVERLQGLVLKCLAEQQKLQQENLQIFTQLQKLNKKLEGGQQVGMHSKGTQTAKEEMEMDPKPDLDSDSWCLLGTDSCRPSL
  phosphorylation of sGNK by GNK (kinase assay with gamma-32P-ATP, SDS-PAGE, Phosphoimager): GNK-mediated phosphorylation of sGNK was demonstrated using the kinase assay described above, except purified, recombinant sGNK was added to the kinase reaction mixture
